B1: G'1 (dsDNA)
DNA 1: CCCCAGGGTGAGCCCAGCTCAGACTATCATCCGGAAAGCCCCCAAAAGTCCCAGCCC
DNA 2: GGGCTGGGACTTTTGGGGGCTTTCCGGATGATAGTCTGAGCTGGGCTCACCCTGGGG
modifications: 8-oxoG at strand 1 position 6
B2: G (dsDNA)
DNA 1: B1 DNA 1
DNA 2: B1 DNA 2
B3: G'2 (dsDNA)
DNA 1: B1 DNA 1
DNA 2: B1 DNA 2
modifications: 8-oxoG at strand 2 position 6 from its 5' end
B4: G'3 (dsDNA)
DNA 1: B1 DNA 1
DNA 2: B1 DNA 2
modifications: 8-oxoG at strand 2 position 43 from its 5' end (opposite strand 1 position 15)

Key:
OGG1 = OGG1 (UniProt O15527 1-345); assay: EMSA; 10 mM HEPES pH 7.9, 10 mM KCl, 1.5 mM MgCl2, 1 mM DTT, 5% glycerol, 20 nM Cy5-DNA, on ice; 6% PAGE at 4 C; conditions: protein: commercial; tags: His; label: 5'-Cy5 on strand 1; blunt
SMAD3 [1] = target: T1, SMAD3 (UniProt P84022 1-425); assay: as above; conditions: protein: recombinant; label: 5'-Cy5 on strand 1; blunt
SMAD3 [2] = target: T1, SMAD3; assay: EMSA; OGG1 + TH2840 (no decrease); 10 mM HEPES pH 7.9, 10 mM KCl, 1.5 mM MgCl2, 1 mM DTT, 5% glycerol, 20 nM Cy5-DNA, on ice; 6% PAGE at 4 C; conditions: protein: recombinant; label: 5'-Cy5 on strand 1; blunt
SMAD2 = SMAD2 (UniProt Q15796 1-467); assay: EMSA; with OGG1 100 nM, SMAD2 800 nM; shift increased; 10 mM HEPES pH 7.9, 10 mM KCl, 1.5 mM MgCl2, 1 mM DTT, 5% glycerol, 20 nM Cy5-DNA, on ice; 6% PAGE at 4 C; conditions: protein: recombinant; label: 5'-Cy5 on strand 1; blunt
SMAD2, sequence (Q15796 whole entry): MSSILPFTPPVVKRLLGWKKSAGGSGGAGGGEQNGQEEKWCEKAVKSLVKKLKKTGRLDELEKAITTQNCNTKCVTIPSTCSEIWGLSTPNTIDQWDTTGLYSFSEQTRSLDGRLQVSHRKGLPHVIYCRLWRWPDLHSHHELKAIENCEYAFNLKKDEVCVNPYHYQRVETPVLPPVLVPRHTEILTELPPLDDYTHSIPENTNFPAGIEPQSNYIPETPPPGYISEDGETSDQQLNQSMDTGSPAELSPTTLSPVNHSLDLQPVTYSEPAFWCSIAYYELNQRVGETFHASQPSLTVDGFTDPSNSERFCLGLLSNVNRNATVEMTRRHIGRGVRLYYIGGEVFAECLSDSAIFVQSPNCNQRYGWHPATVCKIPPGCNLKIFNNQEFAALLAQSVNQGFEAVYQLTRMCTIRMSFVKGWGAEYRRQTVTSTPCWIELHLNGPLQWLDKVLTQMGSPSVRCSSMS

OGG1, sequence (O15527 whole entry): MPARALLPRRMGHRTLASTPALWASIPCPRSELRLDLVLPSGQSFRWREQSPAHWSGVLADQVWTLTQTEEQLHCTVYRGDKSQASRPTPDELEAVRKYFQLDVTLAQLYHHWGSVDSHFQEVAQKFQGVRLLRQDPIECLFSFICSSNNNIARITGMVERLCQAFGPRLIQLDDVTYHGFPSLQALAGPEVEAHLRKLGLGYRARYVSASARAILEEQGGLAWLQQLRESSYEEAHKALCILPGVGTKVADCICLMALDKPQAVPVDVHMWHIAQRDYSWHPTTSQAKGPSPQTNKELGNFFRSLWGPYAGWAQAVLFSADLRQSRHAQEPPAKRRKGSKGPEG
T1 sequence (P84022 whole entry): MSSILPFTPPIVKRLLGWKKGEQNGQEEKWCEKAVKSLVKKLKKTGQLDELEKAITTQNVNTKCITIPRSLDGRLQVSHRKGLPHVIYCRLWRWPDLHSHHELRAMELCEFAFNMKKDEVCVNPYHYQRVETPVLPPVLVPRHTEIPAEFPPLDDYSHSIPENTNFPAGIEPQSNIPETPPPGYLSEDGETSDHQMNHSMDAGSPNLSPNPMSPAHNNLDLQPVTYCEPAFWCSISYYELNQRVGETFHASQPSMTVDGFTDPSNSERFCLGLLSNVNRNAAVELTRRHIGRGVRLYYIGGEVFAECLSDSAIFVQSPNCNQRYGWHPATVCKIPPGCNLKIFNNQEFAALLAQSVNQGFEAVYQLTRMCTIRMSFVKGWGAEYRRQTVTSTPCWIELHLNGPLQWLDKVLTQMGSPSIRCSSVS

Binder | binding result (OGG1) | binding result (SMAD3 [1]) | binding result (SMAD3 [2]) | binding result (SMAD2)
B1 | binds | binds |  | 
B2 |  | binds |  | 
B3 | binds | binds |  | 
B4 | binds |  | binds | binds

Reference: PMC9943661, “8-Oxoguanine targeted by 8-oxoguanine DNA glycosylase 1 (OGG1) is central to fibrogenic gene activation upon lung injury”
